These results are taken from patent publication US20210231678A1, “ALLERGY ANTIGEN AND EPITOPE THEREOF” (FUJITA ACADEMY, priority 2020, published 2021).

The subject of the assay is IgE antibody in the serum of a latex-allergic patient. As to the kind of experiment: Immunoblotting of two-dimensional electrophoresis gels of latex proteins with patient serum. The settings on record: immunoblot of 2D electrophoresis gel of latex proteins, compared with serum of non-latex-allergic subject. In kind it is binding, human. Here is the method:
Identification of antigens by immunoblotting was carried out by taking all the steps up to the step of “Second-dimensional SDS-PAGE” as described above in Example 1, followed by the steps of “Transfer to membrane”, “Immunoblotting” and “Analysis” as described below.
Transfer system: XCell SureLock Mini-Cell and XCell II Blot Module (produced by Life Technologies) Transfer buffer: NuPAGE Transfer Buffer (X20) (produced by Life Technologies), used in a form diluted 200-fold with milliQ water.
Immunoblotting of the membrane was carried out using, as a primary antibody, a serum sample from a patient with a latex allergy or a serum sample from a non-latex-allergic subject.
(1) The transferred membrane was shaken in a 5% skim milk/PBST solution (a PBS buffer containing 0.1% Tween 20 nonionic surfactant) at room temperature for one hour. […]
The immunoblots obtained with the serum from the latex-allergic patient were compared with those obtained with the control serum from the non-latex-allergic subject. For protein present in latex, in immunoblotting using the serum from the latex-allergic patient, 2 spots were detected, which are different from the spots detected when the serum of the non-latex-allergic subject was used and different from those of the known latex allergen proteins. […]
(In general: A western blot detects proteins with antibodies after separation by electrophoresis.)

B1: Hevamine-A (protein, listed as Hevea brasiliensis)
chain: MAKRTQAILLLLLAISLIMSSSHVDGGGIAIYWGQNGNEGTLTQTCSTRKYSYVNIAFLNKFGNGQTPQINLAGHCNPAAGGCTIVSNGIRSCQIQGIKVMLSLGGGIGSYTLASQADAKNVADYLWNNFLGGKSSSRPLGDAVLDGIDFDIEHGSTLYWDDLARYLSAYSKQGKKVYLTAAPQCPFPDRYLGTALNTGLFDYVWVQFYNNPPCQYSSGNINNIINSWNRWTTSINAGKIFLGLPAAPEAAGSGYVPPDVLISRILPEIKKSPKYGGVMLWSKFYDDKNGYSSSILDSVLFLHSEECMTVL
As for B1, the “specific binding to IgE antibodies from allergic patients” value was “specifically bind to IgE antibodies from allergic patients”.

B2: Citrate-binding protein (protein, listed as Hevea brasiliensis)
chain: MKMKRSPYCFCCSFALLLLVSFLKDRHFCSADPTDGFTEVPLTEDNFVIQKPYDKPLNDRYSYKNGIRRLWVYENDKPFKVGSPTRPRTEIRIKGHDYSSGVWQFEGQVHVPEGTSGVTVMQVFGAVNKATALQLRVYNGDLKSYKSNSVATDIYNKWLRVNVIHKVGKGEITVFINGQQKLVVNDDGPAEHYFKCGVYAAPDGSSNYMESRWKNIKLYKSDNKLEGCNNNHGTWLVQ
Turning to B2, the “specific binding to IgE antibodies from allergic patients” value is recorded as “specifically bind to IgE antibodies from allergic patients”.
